Laboratory results published in patent publication US9975933B2, “Tumor tissue-penetrating peptide specific to neuropilin and fusion protein having same peptide fused therein” (AJOU UNIVERSITY INDUSTRY-ACADEMIC COOPERATION FOUNDATION, priority 2013, dated 2018).

target: b1b2 domains (273-586) of neuropilin-1 (Homo sapiens (Human)) (UniProt O14786); assay: SPR, b1b2 domain on chip; details: not given

Kd | koff | kon | Substance
27.9 nM | 0.000808 s⁻¹ | 28900 M⁻¹ s⁻¹ | Sema3A (26-760) (from UniProt Q14563) (ligand)
245 nM | 0.000973 s⁻¹ | 3980 M⁻¹ s⁻¹ | Sema3F (19-779) (from UniProt Q13275) (ligand)
3.51 nM | 0.00342 s⁻¹ | 975000 M⁻¹ s⁻¹ | VEGF165A (from UniProt P15692-4) (ligand)

target: b1b2 domains (275-595) of neuropilin-2 (Homo sapiens (Human)) (UniProt O60462); assay: SPR, b1b2 domain on chip; details: not given

Kd | koff | kon | Substance
231 nM | 0.00161 s⁻¹ | 6960 M⁻¹ s⁻¹ | Sema3A (26-760) (from UniProt Q14563) (ligand)
345 nM | 0.0015 s⁻¹ | 4340 M⁻¹ s⁻¹ | Sema3F (19-779) (from UniProt Q13275) (ligand)
32 nM | 0.00373 s⁻¹ | 117000 M⁻¹ s⁻¹ | VEGF165A (from UniProt P15692-4) (ligand)

target: T1, NRP1-b1b2 (b1b2 domain of neuropilin-1) (Homo sapiens, UniProt O14786); assay: SPR (Biacore2000) binding to b1b2 domain of neuropilin-1; details: NRP1-b1b2, SPR
T1 construct: b1b2 domains (273-586) of neuropilin-1
Experimental: (§1) Specifically, each b1b2 domain of neuropilin-1 and -2 was diluted with 10 mM Na-acetate buffer (pH 4.0), and fixed onto CMS sensor chips (GE healthcare, USA) in about 1000 response units (RU). […] After bond and dissociation analysis, the regeneration of CMS chip was performed by streaming a buffer (20 Mm NaOH, 1 M NaCl, pH 10.0) at a stream velocity 30 μl/min for 1 minute.

T1 sequence (O14786 273-586): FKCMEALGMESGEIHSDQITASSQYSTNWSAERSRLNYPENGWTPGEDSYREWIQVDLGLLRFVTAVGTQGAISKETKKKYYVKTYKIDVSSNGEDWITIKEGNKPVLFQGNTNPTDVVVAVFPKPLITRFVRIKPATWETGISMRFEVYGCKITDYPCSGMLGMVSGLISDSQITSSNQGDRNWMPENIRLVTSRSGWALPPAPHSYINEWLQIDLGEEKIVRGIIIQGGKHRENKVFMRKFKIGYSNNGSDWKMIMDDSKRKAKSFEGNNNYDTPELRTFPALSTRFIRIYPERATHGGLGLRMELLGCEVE

Association rate ka | Dissociation rate kd | Substance
1.02 ± 0.14 × 10^3 M^−1s^−1 | 1.93 ± 0.05 × 10^−2 s^−1 | Fc-4A22: Human IgG1 Fc with TPP 4A22 (SEQ ID NO: 5) fused to its C-terminus (GAGAHTPGNSNKWKHLQENKKGRNRR)
2.18 ± 0.12 × 10^2 M^−1s^−1 | 2.25 ± 0.18 × 10^−3 s^−1 | Fc-4F22: Human IgG1 Fc with TPP 4F22 (SEQ ID NO: 8) fused to its C-terminus (GAGAREAPGAPRSPEPQDQKKPRNRR)

same assay, conditions: NRP1-b1b2, SPR; read-out: Binding affinity KD

Kd | Substance
18000 nM | Fc-4A22: Human IgG1 Fc with TPP 4A22 (SEQ ID NO: 5) fused to its C-terminus (GAGAHTPGNSNKWKHLQENKKGRNRR)
10300 nM | Fc-4F22: Human IgG1 Fc with TPP 4F22 (SEQ ID NO: 8) fused to its C-terminus (GAGAREAPGAPRSPEPQDQKKPRNRR)

target: T2, NRP2-b1b2 (b1b2 domain of neuropilin-2) (Homo sapiens, UniProt O60462); assay: SPR (Biacore2000) binding to b1b2 domain of neuropilin-2; details: not given
T2 construct: b1b2 domains (275-595) of neuropilin-2
T2 sequence (O60462 275-595): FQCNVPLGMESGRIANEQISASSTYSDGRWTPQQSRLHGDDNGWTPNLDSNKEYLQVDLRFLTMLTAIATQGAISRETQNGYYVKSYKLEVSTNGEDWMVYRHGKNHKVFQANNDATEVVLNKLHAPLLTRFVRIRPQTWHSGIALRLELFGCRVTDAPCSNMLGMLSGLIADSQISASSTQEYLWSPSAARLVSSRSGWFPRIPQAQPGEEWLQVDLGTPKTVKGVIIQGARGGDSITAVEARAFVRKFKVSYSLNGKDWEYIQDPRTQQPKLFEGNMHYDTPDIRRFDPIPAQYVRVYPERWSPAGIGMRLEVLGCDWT
Experimental: as §1

Association rate ka | Dissociation rate kd | Substance
6.09 ± 0.63 × 10^3 M^−1s^−1 | 1.23 ± 0.16 × 10^−1 s^−1 | Fc-4A22: Human IgG1 Fc with TPP 4A22 (SEQ ID NO: 5) fused to its C-terminus (GAGAHTPGNSNKWKHLQENKKGRNRR)
1.21 ± 0.15 × 10^2 M^−1s^−1 | 1.57 ± 0.40 × 10^−3 s^−1 | Fc-4F22: Human IgG1 Fc with TPP 4F22 (SEQ ID NO: 8) fused to its C-terminus (GAGAREAPGAPRSPEPQDQKKPRNRR)

same assay, conditions: read-out: Binding affinity KD

Kd | Substance
20200 nM | Fc-4A22: Human IgG1 Fc with TPP 4A22 (SEQ ID NO: 5) fused to its C-terminus (GAGAHTPGNSNKWKHLQENKKGRNRR)
13000 nM | Fc-4F22: Human IgG1 Fc with TPP 4F22 (SEQ ID NO: 8) fused to its C-terminus (GAGAREAPGAPRSPEPQDQKKPRNRR)

test system: VE-cadherin in HUVEC; assay: Western blot of VE-cadherin in HUVEC; type: cell-based, human; details: single peptides and Fc-TPP 1 μM, 10 minutes
Text: During this process, a decrease in vascular endothelial (VE)-cadherin, phosphorylation, etc. of endothelial cells occur. That is, VE-cadherin or epithelial (E)-cadherin involves in adhesion between endothelial cells, while forming the base of adherent junction between endothelial cells and epithelial cells. The change in molecules relieve the density of adherent junction, which results in increasing permeability of blood vessels and improving intracellular permeability.
As an experimental method for indirectly confirming improvement of vascular permeability based thereon, a change in VE-cadherin was confirmed through a Western blot. Specifically, HUVECs were seeded into 6-well plates at a density of 3×10^5 per well, followed by incubation for 24 hours. Thereafter, single peptides and Fc-TPP were treated with 1 μM for 10 minutes to perform a Western blot. Gel subjected to SDS-PAGE was transported into PVDF membrane, a primary antibody (SantaCruz) and an HRP-conjugated secondary antibody (SantaCruz) which recognize VE-cadherin and (3-actin, respectively were used for detection. ImageQuant LAS4000 mini (GE Healthcare) was used for analysis.

Substance | change in VE-cadherin (Western blot)
Fc-4A22: Human IgG1 Fc with TPP 4A22 (SEQ ID NO: 5) fused to its C-terminus (GAGAHTPGNSNKWKHLQENKKGRNRR) | VE-cadherin was not decreased

test system: HUVEC; assay: Transwell assay of vascular endothelial cell permeability; type: cell-based, human; details: single peptides and Fc-TPP 1 μM, 30 minutes
Experimental: Based on the above experimental results, as experiments for confirming the improvement of vascular endothelial cell permeability, single peptides and Fc-TPP were treated to conduct Transwell assay.
Specifically, HUVECs were seeded into Transwell plate (Corning) at a density of 5×10^4 per well in a upper chamber using Endothelial Growth Medium, PromoCell (EGM) medium, followed by incubation at 37° C. for 3 days under 5% CO2 condition. […] Thereafter, Dextran-FITC (Sigma) 50 μg was put into the upper chamber and the medium of the lower chamber was sampled to measure its fluorescence after 30 minutes, using the principle that a fluorescent substance is observed in the lower chamber when the permeability in HUVECs was improved.

Substance | permeability of HUVEC (Transwell, Dextran-FITC)
Fc-4A22: Human IgG1 Fc with TPP 4A22 (SEQ ID NO: 5) fused to its C-terminus (GAGAHTPGNSNKWKHLQENKKGRNRR) | improvement of vascular permeability was not induced
Fc-4F22: Human IgG1 Fc with TPP 4F22 (SEQ ID NO: 8) fused to its C-terminus (GAGAREAPGAPRSPEPQDQKKPRNRR) | permeability of HUVEC was not improved
